B1: periostin: fasciclin extracellular matrix protein, endogenous ligand of integrin αvβ3; mouse recombinant used (protein)
chain: NSYYDKVLAHSRIRGRDQGPNVCALQQILGTKKKYFSSCKNWYQGAICGKKTTVLYECCPGYMRMEGMKGCPAVMPIDHVYGTLGIVGATTTQHYSDVSKLREEIEGKGSYTYFAPSNEAWENLDSDIRRGLENNVNVELLNALHSHMVNKRMLTKDLKHGMVIPSMYNNLGLFINHYPNGVVTVNCARVIHGNQIATNGVVHVIDRVLTQIGTSIQDFLEAEDDLSSFRAAAITSDLLESLGRDGHFTLFAPTNEAFEKLPRGVLERIMGDKVASEALMKYHILNTLQCSEAITGGAVFETMEGNTIEIGCEGDSISINGIKMVNKKDIVTKNGVIHLIDEVLIPDSAKQVIELAGKQQTTFTDLVAQLGLASSLKPDGEYTLLAPVNNAFSDDTLSMDQRLLKLILQNHILKVKVGLSDLYNGQILETIGGKQLRVFVYRTAICIENSCMVRGSKQGRNGAIHIFREIIQPAEKSLHDKLRQDKRFSIFLSLLEAADLKDLLTQPGDWTLFAPTNDAFKGMTSEERELLIGDKNALQNIILYHLTPGVYIGKGFEPGVTNILKTTQGSKIYLKGVNETLLVNELKSKESDIMTTNGVIHVVDKLLYPADIPVGNDQLLELLNKLIKYIQIKFVRGSTFKEIPMTVYRPAMTKIQIEGDPDFRLIKEGETVTEVIHGEPVIKKYTKIIDGVPVEITEKQTREERIITGPEIKYTRISTGGGETGETLQKFLQKEVSKVTKFIEGGDGHLFEDEEIKRLLQGDTPAKKIPANKRVQGPRRRSREGRSQ

Experiments:
[1] = tested on: non-histamine dependent (CQ) itch in mice; assay: Chloroquine (CQ)-induced itch in mice; format: in vivo, mouse; conditions: i.v. cilengitide 100 nM 10 minutes prior to CQ 100 μg/10 μl
Experimental: (§1) All behavioral experiments were conducted during the light cycle at ambient temperature (23° C.). Behavioral assessment of scratching behavior was conducted as described previously (Mishra et al., 2011). Briefly, mice were injected intradermal into the nape of the neck with periostin (R&D), histamine, and chloroquine (all Millipore-Sigma) as previously described (Shimada and LaMotte, 2008). Compounds were diluted in PBS and the same was used as a vehicle. […] Additionally, cilengitide and periostin were combined together (mix) and injected i.d. into the dorsal neck of mouse. Scratching behavior was recorded for 30 minutes and data was presented in bouts per 30 minutes for mice. […] For eye wipes assay, periostin and capsaicin were dropped on mouse cornea and counted wipes for 1-minute. […] For dog's study, periostin (25 μg/25 μl) was injected in the dorsal neck (s.c.) and behavior was recorded and quantified for 30 minutes as “duration of pruritus manifestation” (DPM), as described earlier (Paps et al., 2016). […] When different raters separately scored a single tape, the ratings indicated high interrater reliability (coefficient of correlation, r>0.95). This method of itch readout in NHP has been used and accepted (Ko and Naughton, 2000). The behavior was recorded for 30 minutes duration and number of scratches quantified. […]

dogs = assay: Periostin injection in dogs, pruritus manifestations; format: in vivo, dog; conditions: mouse recombinant periostin 25 μg/100 μl intradermally, neck, within 15 minutes
monkeys = assay: Periostin injection in monkeys, number of scratches; format: in vivo, monkey; conditions: mouse recombinant periostin 25 μg/100 μl subcutaneously, thigh, within 15 minutes
Experimental: as §1

[2] = tested on: Mouse bone marrow-derived mast cells; assay: Mast cell degranulation (β-hexoseaminidase release); format: cell-based; conditions: increasing concentrations, 30 minutes challenge
Experimental: Mouse bone marrow-derived mast cells were cultured from femurs of C57B1/6J mice as described (Jensen et al., 2006). Degranulation was assessed by measuring β-hexoseaminidase release as described (Cruse et al., 2013) using mast cells sensitized with 100 ng/mL anti-DNP IgE (SPE7 clone) (Sigma Aldrich, St. Louis, Miss., United States of America) for 16 hours, before the cells were challenged for 30 minutes with the indicated stimulus.

SST-positive DRG neurons = assay: Whole-cell patch clamp recordings in SST-positive mouse DRG neurons; format: cell-based
Experimental: DRGs were removed aseptically from SOM-reporter mice (6-8 weeks) and incubated with collagenase (1.25 mg/ml)/dispase-II (2.4 units/ml) (both from Roche, Basel, Switzerland) at 37° C. for 90 min, then digested with 0.25% trypsin for 8 min at 37° C., followed by 0.25% trypsin inhibitor. Cells were mechanically dissociated with a flame polished Pasteur pipette in the presence of 0.05% DNAse I (Sigma, St. Louis, Miss., United States of America). DRG cells were plated on glass cover slips and grown in a neurobasal defined medium (with 2% B27 supplement, Invitrogen, Carlsbad, Calif., United States of America) with 5 μM AraC and 5% carbon dioxide at 36.5° C. DRG neurons were grown for 24 hours before use. Whole-cell patch clamp recordings were performed at room temperature using an Axopatch-700B amplifier (Axon Instruments, Foster City, Calif., United States of America) with a Digidata 1440B (Axon Instruments, Foster City, Calif., United States of America). Only SOM-positive neurons (<[…]) were recorded. […] Pipette resistance was 4-6 MΩ for whole-cell recording of periostin—induced inward currents, as previously recorded (Han et al., Neuron, 2018, PMID: 30033153)

| Molecule | CQ-induced itch (scratching bouts per 30 minutes) [1] | itch after periostin injection in dogs (dogs) | itch after periostin injection in monkeys (monkeys) | degranulation of anti-DNP IgE-sensitized mast cells [2] | inward current by periostin (SST-positive DRG neurons; periostin 1 μg/ml, pilot data) | average inward current by periostin (SST-positive DRG neurons; periostin 10 μg/ml, 8 neurons from 4 mice) [pA] |
| --- | --- | --- | --- | --- | --- | --- |
| CC(C)[C@H]1C(=O)N[C@@H](CCCN=C(N)N)C(=O)NCC(=O)N[C@@H](CC(=O)O)C(=O)N[C@H](Cc2ccccc2)C(=O)N1C [cilengitide, cyclo RGDf-n(Me)V] | inhibits | – | – | – | – | – |
| B1 | – | robust scratching | robust scratching | no degranulation | weak inward currents | 58.4 |
